The target of one test is T1, GalNAc-T1 (Homo sapiens, UniProt Q10472).
T1 construct: Control constructs pAcGP67-GalNAc-T1-sol, pAcGP67-GalNAc-T2-sol, pAcGP67-GalNAc-T3-sol, and pAcGP67-O^2-sol were prepared as previously described; made in house; host or cells: insect cells (baculovirus, pAcGP67)
T1 sequence (Q10472 41-559 limits assumed): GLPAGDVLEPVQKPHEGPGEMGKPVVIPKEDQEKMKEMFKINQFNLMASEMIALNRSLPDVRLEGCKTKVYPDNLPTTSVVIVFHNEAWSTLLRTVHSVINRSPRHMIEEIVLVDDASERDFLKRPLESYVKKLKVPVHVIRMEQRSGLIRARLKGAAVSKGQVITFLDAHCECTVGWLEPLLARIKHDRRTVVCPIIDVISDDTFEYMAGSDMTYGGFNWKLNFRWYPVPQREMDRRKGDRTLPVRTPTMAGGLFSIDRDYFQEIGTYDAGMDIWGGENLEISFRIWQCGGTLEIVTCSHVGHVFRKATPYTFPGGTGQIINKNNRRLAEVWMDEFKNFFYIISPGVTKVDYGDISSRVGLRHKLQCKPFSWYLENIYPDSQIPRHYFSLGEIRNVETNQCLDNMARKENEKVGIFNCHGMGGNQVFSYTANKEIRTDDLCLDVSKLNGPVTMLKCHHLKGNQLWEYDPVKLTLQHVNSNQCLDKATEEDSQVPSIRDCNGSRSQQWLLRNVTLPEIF
Briefly: GalNAc-transferase assay with purified recombinant GalNAc-T1. In kind it is biochemical. To be noted: acceptor substrate. As for the experimental part:
(§1) The following examples are provided to illustrate certain preferred embodiments of the invention, and should be considered as illustration and not as limitation. In the examples, GalNAc-transferase assays were performed in 50 μl total reaction mixtures containing 25 mM cacodylate (pH 7.5), 10 mM MnCl2, 0.1-0.25% Triton X-100, 150-200 μM UDP-[^14C]-GalNAc (4,000 cpm/nmole) (Amersham) and 0.06-1 mM acceptor peptides. Peptides were either synthesized or obtained from Carlbiotech (Copenhagen), or Neosystems (Strasbourg), and quality was ascertained by amino acid analysis and mass spectrometry. Peptides Muc-1a, Muc-1b, and TAP24, were derived from the tandem repeat of human MUC1, Gendler et al., J. Biol. Chem. 265:15286 (1990), and Muc2, Muc5AC, and Muc7 from the tandem repeats of MUC2, MUC5AC, and MUC7, respectively. Gum et al., J. Biol. Chem. 264:6480 (1989); Porchet et al., Biochem. Soc. Trans. 23:800 (1995); Bobek et al., J. Biol. Chem. 268:20563 (1993). GalNAc4TAP24 was produced by in vitro glycosylation using GalNAc-T2 as described in Wandall et al., J. Biol. Chem. 272:23503 (1997). Products were quantified by scintillation counting after chromatography on Dowex-1, octadecyl silica cartridges (Bakerbond), or HPLC (PC3.2/3 or mRPC C2/C18 SC2.1/10 Pharmacia, Smart System). Products produced by in vitro glycosylation were in most cases also confirmed by mass spectrometry.
In this example, GalNAc-T4 was expressed in Sf9 insect cells. Expression constructs designed to contain amino acid residues 32-578 of the coding sequence of the putative GalNAc-T4 gene shown in SEQ ID NO:1 prepared by genomic PCR of two clones containing GalNAc-T4 (described in Bennett et al. (1998), supra) were cloned into a BamHI site of the expression vector pAcGP67 (Pharmingen), and the expression construct was sequenced. […]

The target of the next test is T2, GalNAc-T3 (Homo sapiens, UniProt Q14435).
T2 construct: Control constructs pAcGP67-GalNAc-T1-sol, pAcGP67-GalNAc-T2-sol, pAcGP67-GalNAc-T3-sol, and pAcGP67-O^2-sol were prepared as previously described; made in house; host or cells: insect cells (baculovirus, pAcGP67)
T2 sequence (Q14435 38-633 limits assumed): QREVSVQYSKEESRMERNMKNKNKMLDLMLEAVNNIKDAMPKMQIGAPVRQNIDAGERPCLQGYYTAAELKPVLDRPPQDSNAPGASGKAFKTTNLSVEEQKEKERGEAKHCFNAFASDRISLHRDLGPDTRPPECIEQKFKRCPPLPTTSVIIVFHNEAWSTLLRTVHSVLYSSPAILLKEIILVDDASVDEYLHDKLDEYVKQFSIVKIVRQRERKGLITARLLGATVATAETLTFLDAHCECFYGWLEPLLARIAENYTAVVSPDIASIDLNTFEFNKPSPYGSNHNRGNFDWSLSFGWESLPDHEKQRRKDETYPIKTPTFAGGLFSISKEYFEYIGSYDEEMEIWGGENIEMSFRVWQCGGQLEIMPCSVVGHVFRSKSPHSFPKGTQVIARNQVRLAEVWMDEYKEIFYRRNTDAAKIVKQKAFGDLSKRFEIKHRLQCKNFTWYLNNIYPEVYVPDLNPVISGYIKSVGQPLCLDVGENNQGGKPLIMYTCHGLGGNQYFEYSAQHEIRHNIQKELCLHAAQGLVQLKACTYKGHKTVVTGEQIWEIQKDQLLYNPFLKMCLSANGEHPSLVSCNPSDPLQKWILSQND
Briefly: GalNAc-transferase assay with purified recombinant GalNAc-T3. The test is classed as biochemical. The note with it: acceptor substrate. Here is the method: as §1
In this example, GalNAc-T4 was expressed in Sf9 insect cells. Expression constructs designed to contain amino acid residues 32-578 of the coding sequence of the putative GalNAc-T4 gene shown in SEQ ID NO:1 prepared by genomic PCR of two clones containing GalNAc-T4 (described in Bennett et al. (1998), supra) were cloned into a BamHI site of the expression vector pAcGP67 (Pharmingen), and the expression construct was sequenced. The constructs pAcGP67-GalNAc-T4506Vsol and pAcGP67-GalNAc-T4506 I sol, were designed to yield a putative soluble form of the GalNAc-T4 protein with an N-terminal end positioned immediately C-terminal to a potential transmembrane domain and including the entire sequence expected to contain the catalytic domain. Control constructs pAcGP67-GalNAc-T1-sol, pAcGP67-GalNAc-T2-sol, pAcGP67-GalNAc-T3-sol, and pAcGP67-O^2-sol were prepared as previously described in White et al., J. Biol. Chem 270:24156 (1995); Bennett et al., J. Biol. Chem. 271:17006 (1996); and Bennett et al., Biochem. Biophys. Res. Comm. 211:347 (1995).

The values that follow come from patent US6465220B1, “Glycosylation using GalNac-T4 transferase” (GlycoZym ApS, priority 1998, dated 2002).

One may read the Km as the substrate concentration at which the rate is half of its maximum.

For the sequence “DSTTPAPTTK [EA2, mucin derived substrate]”, in the test with GalNAc-T1, the Km came out at 70 µM and the “Vmax GalNAc-T1” value came to 0.99 nmol/min/µg. For the same sequence, in the test with GalNAc-T3, the Km was 460 µM and the “Vmax GalNAc-T3” value came out at 0.96 nmol/min/µg.
